Assay results published in the nanobody polyreactivity screen of Harvey et al. (2022).

Experiment: yeast display, Sf9 membrane polyspecificity reagent, FACS + sequencing; frameworks hold sequencing errors
Outline: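 After 36–48 hours of galactose induction, yeast (Saccharomyces cerevisiae BJ5465) displaying a synthetic nanobody library were stained at 4 °C for 1 hour with 10% biotinylated, detergent-solubilized Sf9 membrane reagent. Streptavidin microbeads enriched the stained cells before FACS sorting into low and high (top ~1%) gates on anti-HA and streptavidin fluorescence. Each clone's polyreactivity label reflects its gate of origin.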

| Sequence | polyreactivity (PSR sort gate) |
| --- | --- |
| QVQLVESGGGLVQAGGSLRLSCAASGSIFPHYAMGWYRQAPGKERELVATIRSRSGSTYYADSVKGRFTISRDNAKNTVYLQMNSLKPEDTAVYYCAKDNSLFQRDYWGQGTQVTVSS | low polyreactivity |
| QVQLVESGGGLVQAGGSLRLSCAASGSIFPINARGWYREAPGKERELVAVITSGGGGTYYADSVKGRFTISRDNAKNTVYLQMNCLTPEDTAVYYCAKRLSRKWQKFGYWGQGTQVTVSS | low polyreactivity |
| QVQLVESGGGLVQAGGSLRLSCAASGSIFPIYAMGWYRPAPGKERELVAAINRSGGSTYYADSVKGRFTISRDNAKNTVYLQMNSLKPEDTAVYYCNADYGYHNQLFWGYYGWSSDHWGQGTQVTVSS | low polyreactivity |
| QVQLVESGGGLVQAGGSLRLSCAASGSIFPKNAMGWSRQAPGKVREFVATITKRGGRTYYADSVKGRFTISRDNAKNTVYLQMNSQKPEEPAVYYCARDQGKLVVPYDYWGQGTQLTVSS | high polyreactivity |
| QVQLVESGGGLVQAGGSLRLSCAASGSIFPKNAMGWYRQAPGKERELVAGITSRTGRTYYADSVKGRFTISRDKAKNTVYLQMNSLKPEDTAVYYCAARIGGGPVKYDYWGQGTQVTVSS | high polyreactivity |
| QVQLVESGGGLVQAGGSLRLSCAASGSIFPKNAMGWYRQATGKERELVARISGSGGSTYYADSVKGRFTISRDNAKNTVYLQMNSLKPEDTAVYYCAKDQSKIYSSWSGYYYWGQGTQVTVSS | low polyreactivity |
| QVQLVESGGGLVQAGGSLRLSCAASGSIFPKYAKGWYRQAPGKEREMVAAINWRGVSTYYADSVKGRFTISRDNAKNTVYLQMNSLKPEDTAVYYCAADLLHTRQFGYWGQGTQVTVSS | low polyreactivity |
| QVQLVESGGGLVQAGGSLRLSCAASGSIFPKYAMGWDRQAPGKERELVATITWSGSSTYYADSVKGRFTISRDNAKNTVYLQMNSLKPEDTAVYYCAATGWSSFYYRFDYWGQGTQVTVSS | low polyreactivity |
| QVQLVESGGGLVQAGGSLRLSCAASGSIFPLNAMGWYRQAPGKERELVASISTGSSTYYADSVKGRFTISRDNAKNTVYLQMNSLKPEDTAVYYCAVDRVLFSDYYRGYEYNYWGQGTQVTVSS | low polyreactivity |
| QVQLVESGGGLVQAGGSLRLSCAASGSIFPLNDMGWYRQAPGKERELVAAITIGGSTYYADSVKGRFTISRDNAKNTVYLQMNSLKPEDTAVYYCAKVGELSYRYDYWGQGTQVTVSS | high polyreactivity |
| QVQLVESGGGLVQAGGSLRLSCAASGSIFPLYAMGWYRQAPGKERELVADITVSGGSTYYADSVKGRFTISRDNAKNTVYLQMNSLKPEDTAVYYCNADDRSPFPDYWWYPYDYDYWGQGTQVTVSS | low polyreactivity |
| QVQLVESGGGLVQAGGSLRLSCAASGSIFPLYDMGWYRQAPGKERELVAGITGSGGSSYYADSVKGRFTISRDNAKNTVYLQMNSLKPEDTAVYYCAADYSLYGWWFRNDYWGQGTQVTVSS | low polyreactivity |
| QVQLVESGGGLVQAGGSLRLSCAASGSIFPNGMGSYRQAPGKERELVATITSGGSTYYADSVKGRFTISRDNAKNTVYLQMNSLKPEETAVYYCADTVYGGYSGSGCNYWGKGTQVTVSS | low polyreactivity |
| QVQLVESGGGLVQAGGSLRLSCAASGSIFPPNAMGWYRQAPGKERELVAGISQSGGSTYYADSVKGRFTISRDNAKNTVYLQMNSLKPEDTAVYYCARSFYSGRRYYYWGQGTQVTVSS | high polyreactivity |
| QVQLVESGGGLVQAGGSLRLSCAASGSIFPPYAMGWYRQAPGKERELVATITIRGGSTYYADSVKGRFTISRDNAKNTVYLQMNSLKREDTAVYYCAADYTKYYRRYYYWGQGTQVTVSS | high polyreactivity |
| QVQLVESGGGLVQAGGSLRLSCAASGSIFPPYVMGWYRPAPGKERELVAAINYIGDSTYADSVKGRFTISRDNAKNTVYLQINSLKPEDTAVYYCAAELWSGGVYSGFEEYWGQGTQVTVSS | high polyreactivity |
| QVQLVESGGGLVQAGGSLRLSCAASGSIFPQNAMGWYRQAPGKERELVASITSRGGITNYADSVKGRFTISRDNAKNTVYLQMNSLKPEDSAVYYCAADLYIYPYDYWGQGTQVTVSS | low polyreactivity |
| QVQLVESGGGLVQAGGSLRLSCAASGSIFPQYAMGWYRQAPGTERELVAAISSSGGRTYYADSVKGRFTISRDNAKYTVYLQMNSLKPEDTAVYYCITRWRSRYGYGDQSEDYWGQGTQVTVSS | high polyreactivity |
| QVQLVESGGGLVQAGGSLRLSCAASGSIFPRNAMGWYRQAPGKERELVAAITTTGGITHYADSVKGRFTISRDNAKNTVYLQMNSLKPEDTAVYYCAASNEVPWRFPDDYWGQGTQVTVSA | low polyreactivity |
| QVQLVESGGGLVQAGGSLRLSCAASGSIFPRNTMGWYRQAPGKERELVAAMSSGASTYYADSVKGRFTISRDNAKNTVYLQMNSLKPEDTAVYYCAKRYQDTSPKDGENEYWGQGTQVTVSS | low polyreactivity |
| QVQLVESGGGLVQAGGSLRLSCAASGSIFPRYAMGWYRQAPGKERELVAAINSGGSTNYADSVKGRFTISRDNAKNTVYLQMHSLKPEDTAVYYCNAVFISYSYRRGPTLYVYWGQGTQVTVSS | high polyreactivity |
| QVQLVESGGGLVQAGGSLRLSCAASGSIFPSNAMGWYRQAPGKERELVAAINRDGITNYADSVKGRFTISRDNAKNTVYLQMNSLKPEDTAVYYCAAEFAWQWWEYGYWGQGSQVTVSS | low polyreactivity |

| Sequence | polyreactivity (PSR sort gate) |
| --- | --- |
| QVQLVESGGGLVQAGGSLRLSCAASGSIFPSYAMGWYRQAPGKDRELVATLGRGGTTNYADSVKGRFTLSRDNAKNTVYIQMNSLKPEDTAVYYCNAERIWRYKDGYDYWGQGTQVTVSS | high polyreactivity |
| QVQLVESGGGLVQAGGSLRLSCAASGSIFPSYARGWDRKAPGKERELVAAISSSGGSTYYADSVKGRFTISRDNAKNTVYLQMNSLKPEDTAVYYCATRYRRWSTVVQDDYWGQGTQVTVSS | low polyreactivity |
| QVQLVESGGGLVQAGGSLRLSCAASGSIFPSYSMGWYRQAPGKERELVAVISVSGGRTYYADSVKGRFTISRDNAKNTVYLQMKSLKPEDTAVYYCAKDRPQEYDYWGQGTQVTVSS | low polyreactivity |
| QVQLVESGGGLVQAGGSLRLSCAASGSIFPVNAMGWYRQAPGKEREFVAAINVIGGSTYYADSVKGRFTISRDNAKNTVYLQMNSLKPEVTAVYYCAVEGYSILFGMDYLGQGTQVTVSS | low polyreactivity |
| QVQLVESGGGLVQAGGSLRLSCAASGSIFPVNAMGWYRQAPGKERELVAAISEGSTSTYYADSVKGRFTISRDNAKNTVYLQMNSLKPEDTAVYYCAADYDTGYEYWGQGTQVTVSS | low polyreactivity |
| QVQLVESGGGLVQAGGSLRLSCAASGSIFPVYTMGWYRQAPGKEREFVATITISGAITYYADSVKGRFTISRDNAKNTVYLQMTSLKPEDTAVYYCNTGPMYFPANDYWGQGTQVTVSS | low polyreactivity |
| QVQLVESGGGLVQAGGSLRLSCAASGSIFPWNAMGWYRQAPGKERELVAGINESGGSTYYADSVKGRFTISRDNAKNTVYLQMNSLKPEDTAVYYCAADGYPSVGDDYWGQGTQVTVSS | low polyreactivity |
| QVQLVESGGGLVQAGGSLRLSCAASGSIFPWYAMGWYRQAPGKERELVAAITISGGSTHYADSVKGRFTISRDNAKNTVYLQMNRLKPEDTAVYYCATPRYPSYDYWGQGTQVTVSS | low polyreactivity |
| QVQLVESGGGLVQAGGSLRLSCAASGSIFPYNAMGWYRQAPGEFVAAISYSSGSTYYADSVKGRFTISRDNAKNTVYLQMNSLKPEDTAVYYCAAGSWYPPSYVWLGRYDYWGQGTQVTVSS | low polyreactivity |
| QVQLVESGGGLVQAGGSLRLSCAASGSIFPYNDMGWYRQAPGKERELVAAISDSAGSTYYADSVKGRFTISRDNAKNTVYLQMNSLKPEYTAVYYCADYDYWGQGTQVTVSS | low polyreactivity |
| QVQLVESGGGLVQAGGSLRLSCAASGSIFPYNPMGWYRQAPGEFGAAISYSSGSTYYADSVKGRFTISRDNAKNTVYLQMNSLKPEDTAVYYCAAGLPKYEHEYWGQVTQVTVSS | low polyreactivity |
| QVQLVESGGGLVQAGGSLRLSCAASGSIFPYYAMGGYRQAAGKERELVATITSRGGSTDYADYVKGRFTISRDNAKNTVYLQMNSLKREDTAVYYCAKEYRYYRRRYDYWGQGTQVTVSS | high polyreactivity |
| QVQLVESGGGLVQAGGSLRLSCAASGSIFPYYAMGWYRQAPGKERDLVAAISWSGTSTYYADSLKGRFTISRDNAKNTVYLQMNSLNPEDTAVYYCAASGVGTNHYGYWNESDYWGQGTQVTVSS | low polyreactivity |
| QVQLVESGGGLVQAGGSLRLSCAASGSIFPYYAMGWYRQAPGKERELVAAINWSGDSTYYADSVKGRFTISRDNAKNTVYLQMNSLKPEDTAVYYCAARSRWRYDYWGQGTQVTVSS | low polyreactivity |
| QVQLVESGGGLVQAGGSLRLSCAASGSIFPYYAMGWYRQAPGKERELVAAITWSGGGTYYADSVKGRFTISRDNAKNTGYLQMNSLKPEDTAVYYCAASYRYYWFDYWGQGTQVTVSS | high polyreactivity |
| QVQLVESGGGLVQAGGSLRLSCAASGSIFPYYAMGWYRQAPGKERELVAGISRRGGTTYYADSVKGRFTISRDNAKNTVYLQMNSLKPEDTAVYYCAARYGPYVDRYGYWGQGTQVTVSS | high polyreactivity |
| QVQLVESGGGLVQAGGSLRLSCAASGSIFPYYAMGWYRQAPGKERELVATISSGGSTFYADSVKGRFTISRDNAKKTVYLQMNSLKPEDTAVYYCAADIWYFDYDYWGQGTQVTVSS | high polyreactivity |
| QVQLVESGGGLVQAGGSLRLSCAASGSIFPYYAMGWYRQAPGKERELVATITSRGGSTYYADSVKGRFTISRDNAKNTVYLQMNSLKPEDTAVYYCAKEYRYYRRRYDYWGQGTQVTVSS | high polyreactivity |
| QVQLVESGGGLVQAGGSLRLSCAASGSIFPYYDMGWYRQAPGKERELVAAITSSGSTFYADSVKGRFTISRDNAKNTVYLQMNSLKPEVTAVYSCNTRDIRVRPYDYWGQGTQVTVSS | low polyreactivity |
| QVQLVESGGGLVQAGGSLRLSCAASGSIFQFNAMGWYIQAPGKERELVAAISRRTGSTYYADSVKGRFTISRDNAKNTVYLQMNSLKPEDTAVYYCAAKGYGSAPTYRHNYWGQGTQVTISS | high polyreactivity |
| QVQLVESGGGLVQAGGSLRLSCAASGSIFQFSAMGWYRQAPGKERPLVAAISDRGGSTYYADSVKGRFTISRDNAKNTVYLLMNSLKPEDTAVYYCAKGGEVSQGYTDEYDYWGQGTQVTVSS | low polyreactivity |
